Usually EC50 (read off the curve) stands for the concentration needed to bring the measured effect to its halfway point. Low readings indicate higher potency in that assay, high ones lower potency in that assay.

Results on two molecules are retold here after patent publication US20240166768A1 (YEDA RESEARCH AND DEVELOPMENT, published 2024).

The target of assay [1] is BSA (bovine, UniProt P02769). Nature of the assay: dose-response ELISA, O.D. 630. The procedure: ELISA reactions were carried out using flat-bottom MaxiSorp™ 96-well plates (Invitrogen). Antigen coating was performed in PBS at 1001 per well and left overnight at 4° C. For standard dose response ELISA assays, antigens were plated at a concentration of 1 μg/ml. For comparative ELISA assays with multiple antigen targets, antigens were plated at a constant molar concentration of 50 nM. The plates were washed 5 times with washing buffer (1×PBS with 0.05% Tween-20 (Sigma-Aldrich)) and incubated with 1001 blocking buffer (1×PBS with 1% BSA) for 1 h at room temperature. The blocking solution was subsequently replaced by serial dilutions of either mono- or polyclonal antibodies or serum samples for 2.5 h at RT. For standard dose response ELISA assays, antibodies were introduced over a range of dilutions whereas for ELISA screens, antibodies were introduced at 100 nM. Serum samples were assayed at a dilution of 1:100. Plates were washed 5 times with washing buffer and then incubated with anti-human IgG secondary antibody conjugated to horseradish peroxidase (HRP) (Jackson Immuno Research) in PBS at a 1:5,000 dilution. After washing the plates for additional 5 times, the plates were developed using TMB (Thermo Fisher) and absorbance was measured at 630 nm with an ELISA microplate reader (Synergy HTX plate reader, Biotek). […]
BSA, sequence (P02769 25-607 limits assumed): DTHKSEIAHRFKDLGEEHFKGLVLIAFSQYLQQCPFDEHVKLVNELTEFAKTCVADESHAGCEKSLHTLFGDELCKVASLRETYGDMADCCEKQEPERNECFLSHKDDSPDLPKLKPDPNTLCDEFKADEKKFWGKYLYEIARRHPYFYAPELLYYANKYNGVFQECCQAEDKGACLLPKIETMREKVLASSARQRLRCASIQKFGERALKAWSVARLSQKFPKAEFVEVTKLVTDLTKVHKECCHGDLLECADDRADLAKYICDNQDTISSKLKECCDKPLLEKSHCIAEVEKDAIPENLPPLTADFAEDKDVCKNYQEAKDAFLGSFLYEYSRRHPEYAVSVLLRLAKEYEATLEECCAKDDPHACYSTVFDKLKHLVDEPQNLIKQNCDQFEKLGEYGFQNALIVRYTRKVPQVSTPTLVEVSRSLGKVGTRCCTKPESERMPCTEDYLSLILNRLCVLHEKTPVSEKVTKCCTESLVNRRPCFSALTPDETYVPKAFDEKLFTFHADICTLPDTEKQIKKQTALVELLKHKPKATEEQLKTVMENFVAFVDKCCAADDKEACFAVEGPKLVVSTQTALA
(An ELISA detects its analyte on a solid surface through an enzyme-linked reagent.)

The target in assay [2] is T1, ROI-1 peptide of MMP14 (I-A loop).
T1 construct: also called 'ROI-peptide'; 'Peptide (ROI)'
In words: peptide validation ELISA: antibody plated, biotinylated peptide titrated, streptavidin-HRP; the concentration is that of the peptide.

B1: T13-GL (antibody, human IgG1, V domains shown)
VH: EVQLVESGGGLVQPGGSLRLSCAASGFTFSSYDMHWVRQATGKGLEWVSAIGTAGDTYYPGSVKGRFTISRENAKNSLYLQMNSLRAGDTAVYYCARGIAVAGFPLDVWGKGTTVTVSS
VL: not shown
notes: also called germline version of T13
With B1, in assay [1], the binding result is “no binding (tested: about 500 nM)”.

B2: T12 (antibody, human IgG1, V domains shown)
VH: EVQLVESGGGLVQPGGSLRLSCAASGFTFNNHDMHWVRQVTGKGLEWVSSIGNFGDTYYSGSVKGRFTISRQDAKNSLYLQMNRLRVGDTAVYYCARGRAVAGNPLDVWGKGTTVTVSS
VL: EIVMTQSPATLSVSPGETATLSCRANQTLYNNLAWYQQKPGQAPRLLIYSGSTRATGIPARFSGSGSGTEFSLTISSLQSEDFAVYYCQHYTPWPPYTFGQGTKVDFK
Turning to B2, the “EC50 (read off the curve)” value in assay [2] is approximately 4 µg/mL.
